Measurements as given in publication PMC8746622, “Purification, Characterization, and Structural Studies of a Sulfatase from Pedobacter yulinensis” (Molecules, 2021).
Values belong to the molecule of their own block, whether it stands above or below them.

What was measured:
[1] = target: Pedobacter yulinensis sulfatase (PyuS), recombinant, without the putative N-terminal signal peptide, C-terminal His6-tag (Pedobacter yulinensis); test: SEC; HiLoad 16/600 Superdex 200 pg, 10 mM Tris, 150 mM sodium chloride, pH 8.0, 1.2 mL/min, 4 °C; molecular weights of the two peaks from SEC MW standards; monomer and dimer
purified protein = substrate: Cc1cc(=O)oc2cc(OS(=O)(=O)O)ccc12; test: purified protein; assay type: biochemical, Pedobacter yulinensis; conditions: 25 mM Bis-Tris pH 6.5, 1.0 mM CaCl2, room temperature, SEC monomer

percent of soluble protein as homodimer [1]: 10%
stoichiometry N [1]: 2
Molecule: Pedobacter yulinensis sulfatase (PyuS), recombinant, without the putative N-terminal signal peptide, C-terminal His6-tag (enzyme)

B1: PyuS (Pedobacter yulinensis) (protein)
chain: QGSRKPNIIFIMADDLGWGELGSYGNTFNETPNLDRLSAQGMRFTQAYAAAPVCSPTRASIMTGQYPARVGITDFLPEDEKTDRWLDPTKYVTLNEALSASGYHTGIVGKWHLDTDFKLNKGGPKAHGFNEVIGTESEYIADGDYFFPYSKIASFDKGTANEYLTDRQCAEANAFITRNREKPFFLYLSLYSVHTRLEAPVQLVEKYKQKFDQKYGTGKAEQFFGANNVRHESAQRDNPWLAAMLESIDTGVGGIMKTLRETGLAENTIIVFFSDNGGAGKAGNNAHLRAGKTWLYEGGIREPLIVSWPGKIKGNTVNDNPVTSLDFYPTFLAAAGGKPTGGRLDGHNLMPLLRGGRASGRPLFWHYPSETGKWVNRMSSAVREGNYKLLEFYNNPRLELYDLQNDPSESHNLATDRPAETARLKKLLEDWKKEVNAEAPHLARKEKKKP
notes: signal peptide (native residues 2-24) removed; C-terminal GSHHHHHH tag kept; expressed in E. coli with M. tuberculosis FGE (active-site Cys converted to formylglycine, FGly55); 459 residues, 51,320 Da; SEC monomer
Km (purified protein): 1890 µM
kcat (purified protein): 0.00983 s⁻¹
